In patent publication US20040259075A1:

Target: Env-CD4-CCR5 complex (Example II) (UniProt P01730)
Test: method not stated; reference is X5-Fab

Sequence of Env-CD4-CCR5 complex (Example II) (P51681 whole entry, chain 2 of 2, other chains not shown): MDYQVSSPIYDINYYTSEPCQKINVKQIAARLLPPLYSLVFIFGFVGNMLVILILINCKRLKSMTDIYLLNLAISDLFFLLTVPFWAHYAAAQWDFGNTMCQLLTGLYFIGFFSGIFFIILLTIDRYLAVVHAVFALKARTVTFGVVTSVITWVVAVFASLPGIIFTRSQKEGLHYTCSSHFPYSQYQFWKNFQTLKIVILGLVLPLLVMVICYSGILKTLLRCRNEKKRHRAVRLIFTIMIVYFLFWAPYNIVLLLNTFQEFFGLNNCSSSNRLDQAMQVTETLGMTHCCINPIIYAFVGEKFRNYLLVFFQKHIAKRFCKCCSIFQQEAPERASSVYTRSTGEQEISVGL

B1: FabS (Fab, V domains shown)
VH: VQLLEQSGAEVKKPGSSVQVSCKASGGTFSMYGFNWVRQAPGHGLEWMGGIIPIFGTSNYAQKFRGRVTFTADQATSTAYMELTNLRSDDTAVYYCARDFGPDWEDGDSYDGSGRGFFDFWGQGTLVTVSS
VL: ELVLTQSPGTLSLSAGERATLSCRASQSVSSGSLAWYQQKPGQAPRLLIYGASTRATGIPDRFSGSGSGTDFTLTIGRLEPEDLAVYYCQQYGTSPYTFGQGTKLEIKR
For B1, which fold increased affinity compared to the original X5-Fab is on record?
Its fold increased affinity compared to the original X5-Fab is 5 fold.
